Measurements reported in patent publication US20110263454A1, “Methods of Identifying Functional Characteristics of Promoters, Transcription Modifying Proteins and Transcription Modulating Agents” (Salk Institute for Biological Studies, priority 2008, published 2011).

B1: PPARd: Peroxisome proliferator activated receptor δ (NR1C2), cDNA driver (protein, UniProt Q03181 1-441, looked up)
Peroxisome …: MEQPQEEAPEVREEEEKEEVAEAEGAPELNGGPQHALPSSSYTDLSRSSSPPSLLDQLQMGCDGASCGSLNMECRVCGDKASGFHYGVHACEGCKGFFRRTIRMKLEYEKCERSCKIQKKNRNKCQYCRFQKCLALGMSHNAIRFGRMPEAEKRKLVAGLTANEGSQYNPQVADLKAFSKHIYNAYLKNFNMTKKKARSILTGKASHTAPFVIHDIETLWQAEKGLVWKQLVNGLPPYKEISVHVFYRCQCTTVETVRELTEFAKSIPSFSSLFLNDQVTLLKYGVHEAIFAMLASIVNKDGLLVANGSGFVTREFLRSLRKPFSDIIEPKFEFAVKFNALELDDSDLALFIAAIILCGDRPGLMNVPRVEAIQDTILRALEFHLQANHPDAQYLFPKLLQKMADLRQLVTEHAQMMQRIKKTETETSLHPLLQEIYKDMY
B2: FXR: Farnesoid X Receptor (NR1H4), cDNA driver (protein, UniProt Q96RI1 1-486, looked up)
Bile acid receptor: MVMQFQGLENPIQISPHCSCTPSGFFMEMMSMKPAKGVLTEQVAGPLGQNLEVEPYSQYSNVQFPQVQPQISSSSYYSNLGFYPQQPEEWYSPGIYELRRMPAETLYQGETEVAEMPVTKKPRMGASAGRIKGDELCVVCGDRASGYHYNALTCEGCKGFFRRSITKNAVYKCKNGGNCVMDMYMRRKCQECRLRKCKEMGMLAECMYTGLLTEIQCKSKRLRKNVKQHADQTVNEDSEGRDLRQVTSTTKSCREKTELTPDQQTLLHFIMDSYNKQRMPQEITNKILKEEFSAEENFLILTEMATNHVQVLVEFTKKLPGFQTLDHEDQIALLKGSAVEAMFLRSAEIFNKKLPSGHSDLLEERIRNSGISDEYITPMFSFYKSIGELKMTQEEYALLTAIVILSPDRQYIKDREAVEKLQEPLLDVLQKLCKIHQPENPQHFACLLGRLTELRTFNHHHAEMLMSWRVNDHKFTPLLCEIWDVQ
B3: PXR: Pregnane X Receptor (NR1I2), cDNA driver (protein, UniProt O75469 1-434, looked up)
Nuclear receptor subfamily 1 …: MEVRPKESWNHADFVHCEDTESVPGKPSVNADEEVGGPQICRVCGDKATGYHFNVMTCEGCKGFFRRAMKRNARLRCPFRKGACEITRKTRRQCQACRLRKCLESGMKKEMIMSDEAVEERRALIKRKKSERTGTQPLGVQGLTEEQRMMIRELMDAQMKTFDTTFSHFKNFRLPGVLSSGCELPESLQAPSREEAAKWSQVRKDLCSLKVSLQLRGEDGSVWNYKPPADSGGKEIFSLLPHMADMSTYMFKGIISFAKVISYFRDLPIEDQISLLKGAAFELCQLRFNTVFNAETGTWECGRLSYCLEDTAGGFQQLLLEPMLKFHYMLKKLQLHEEEYVLMQAISLFSPDRPGVLQHRVVDQLQEQFAITLKSYIECNRPQPAHRFLFLKIMAMLTELRSINAQHTQRLLRIQDIHPFATPLMQELFGITGS
B4: CAR: Constitutive Androstane Receptor (NR1I3), cDNA driver (protein, UniProt Q14994 1-352, looked up)
Nuclear receptor subfamily 1 …: MASREDELRNCVVCGDQATGYHFNALTCEGCKGFFRRTVSKSIGPTCPFAGSCEVSKTQRRHCPACRLQKCLDAGMRKDMILSAEALALRRAKQAQRRAQQTPVQLSKEQEELIRTLLGAHTRHMGTMFEQFVQFRPPAHLFIHHQPLPTLAPVLPLVTHFADINTFMVLQVIKFTKDLPVFRSLPIEDQISLLKGAAVEICHIVLNTTFCLQTQNFLCGPLRYTIEDGARVSPTVGFQVEFLELLFHFHGTLRKLQLQEPEYVLLAAMALFSPDRPGVTQRDEIDQLQEEMALTLQSYIKGQQRRPRDRFLYAKLLGLLAELRSINEAYGYQIQHIQGLSAMMPLLQEICS
B5: RXRb: Retinoic X Receptor β (NR2B2), cDNA driver (protein, UniProt P28702 1-533, looked up)
Retinoic acid receptor …: MSWAARPPFLPQRHAAGQCGPVGVRKEMHCGVASRWRRRRPWLDPAAAAAAAVAGGEQQTPEPEPGEAGRDGMGDSGRDSRSPDSSSPNPLPQGVPPPSPPGPPLPPSTAPSLGGSGAPPPPPMPPPPLGSPFPVISSSMGSPGLPPPAPPGFSGPVSSPQINSTVSLPGGGSGPPEDVKPPVLGVRGLHCPPPPGGPGAGKRLCAICGDRSSGKHYGVYSCEGCKGFFKRTIRKDLTYSCRDNKDCTVDKRQRNRCQYCRYQKCLATGMKREAVQEERQRGKDKDGDGEGAGGAPEEMPVDRILEAELAVEQKSDQGVEGPGGTGGSGSSPNDPVTNICQAADKQLFTLVEWAKRIPHFSSLPLDDQVILLRAGWNELLIASFSHRSIDVRDGILLATGLHVHRNSAHSAGVGAIFDRVLTELVSKMRDMRMDKTELGCLRAIILFNPDAKGLSNPSEVEVLREKVYASLETYCKQKYPEQQGRFAKLLLRLPALRSIGLKCLEHLFFFKLIGDTPIDTFLMEMLEAPHQLA

Test system: mAgrp promoter
Assay: NHR-promoter luciferase screen, mAgrp promoter
Assay type: cell-based, mouse
Details: Table 6d; luciferase activity relative to control (control = 1.00)
Method in brief: (§1)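 CV-1 cells were co-transfected with 50 ng NHR (homodimer or NHR/RXR heterodimer), 100 ng promoter-luciferase construct and 50 ng LacZ. Luciferase was normalized to LacZ and to a no-NHR/no-ligand control.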

Row | Molecule | Results of assays of transcription factor (+/- ligand) with mAgrp
1 | B1 | 1.32
2 | B2 | 1.14
3 | B3 | 1.51
4 | B4 | 1.06
5 | B5 | 1.30

Same assay, conditions: mAgrp promoter; HR component with or without ligand

Row | Molecule | Luc. act., normalized to lacZ
6 | B1 | 52.4
7 | B2 | 45.1
8 | B3 | 60.0
9 | B4 | 42.2
10 | B5 | 51.6

Same assay, conditions: mAgrp promoter; HR component with or without ligand; relative to control

Row | Molecule | Normalized Luc. act., normalized to control
11 | B1 | 1.3
12 | B2 | 1.1
13 | B3 | 1.5
14 | B4 | 1.1
15 | B5 | 1.3

Test system: mUCP1 promoter
Assay: NHR-promoter luciferase screen, mUCP1 promoter
Assay type: cell-based, mouse
Details: mUCP1 promoter reporter; co-transfected HR, with or without its ligand
Method in brief: as §1

Row | Molecule | Luc. act., normalized to lacZ
16 | B1 | 3.5
17 | B2 | 4.2
18 | B3 | 2.1
19 | B4 | 3.3
20 | B5 | 0.9

Same assay, conditions: mUCP1 promoter reporter; co-transfected HR, with or without its ligand; relative to control

Row | Molecule | Normalized Luc. act., normalized to control
21 | B1 | 0.8
22 | B2 | 1.0
23 | B3 | 0.5
24 | B4 | 0.7
25 | B5 | 0.2

Same assay, conditions: mUCP! promoter-luciferase, CV-1 cells, NHR +/- ligand, control = 1.00

Row | Molecule | luciferase activity normalized to lacZ activity and to a control, mUCP!
26 | B1 | 0.79
27 | B2 | 0.95
28 | B3 | 0.47
29 | B4 | 0.74
30 | B5 | 0.21

Test system: Bmal1 promoter
Assay: NHR-promoter luciferase screen, Bmal1 promoter
Assay type: cell-based, mouse
Details: Bmal1 promoter; HR component without or with ligand
Method in brief: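 CV-1 cells co-transfected with 50 ng NHR (V5H6-tagged, pcDNA3.1; homodimer or RXR heterodimer), 100 ng Bmal1 promoter-luciferase and 50 ng LacZ. Luciferase was normalized to LacZ and to a no-NHR/ligand control.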

Row | Molecule | Luc. act., normalized to lacZ | Normalized Luc. act., normalized to control
31 | B1 | 11.2 | 0.7
32 | B2 | 15.6 | 1.0
33 | B3 | 31.2 | 2.0
34 | B4 | 16.4 | 1.1
35 | B5 | 12.5 | 0.8

Same assay, conditions: transcription factor +/- ligand; control = 1.00

Row | Molecule | mBmal1 promoter reporter activity
36 | B1 | 0.72
37 | B2 | 1.00
38 | B3 | 2.00
39 | B4 | 1.05
40 | B5 | 0.80

Test system: mGhrelin promoter
Assay: NHR-promoter luciferase screen, mGhrelin promoter
Assay type: cell-based, mouse
Details: Table 8; mGhrelin
Method in brief: as §1

Row | Molecule | Luc. act., normalized to lacZ | Normalized Luc. act., normalized to control
41 | B1 | 56.1 | 1.1
42 | B2 | 65.7 | 1.3
43 | B3 | 136.2 | 2.6
44 | B4 | 52.2 | 1.0
45 | B5 | 62.9 | 1.2

Same assay, conditions: Table 6d; luciferase activity relative to control (control = 1.00)

Row | Molecule | Results of assays of transcription factor (+/- ligand) with mGhrelin
46 | B1 | 1.07
47 | B2 | 1.26
48 | B3 | 2.61
49 | B4 | 1.00
50 | B5 | 1.20

Test system: hIRF7 promoter
Assay: NHR-promoter luciferase screen, hIRF7 promoter
Assay type: cell-based, human
Details: IRF7 promoter reporter; HR without or with its ligand; relative to control
Method in brief: as §1

Row | Molecule | Normalized Luc. act., normalized to control
51 | B1 | 1.3
52 | B2 | 1.6
53 | B3 | 1.4
54 | B4 | 1.4
55 | B5 | 0.3

Same assay, conditions: IRF7 promoter reporter; hormone receptor (HR) without or with its ligand

Row | Molecule | Luc. act., normalized to lacZ
56 | B1 | 33.6
57 | B2 | 41.8
58 | B3 | 36.3
59 | B4 | 37.3
60 | B5 | 8.9

Same assay, conditions: transcription factor +/- ligand; control = 1.00

Row | Molecule | hIRF7 promoter reporter activity
61 | B1 | 1.27
62 | B2 | 1.59
63 | B3 | 1.38
64 | B4 | 1.42
65 | B5 | 0.34
